Where “and” joins values, the source holds several entries; their conditions need not be identical. Equal values may be shown once.
T1: CD206 (human, UniProt P22897)
T1 chain: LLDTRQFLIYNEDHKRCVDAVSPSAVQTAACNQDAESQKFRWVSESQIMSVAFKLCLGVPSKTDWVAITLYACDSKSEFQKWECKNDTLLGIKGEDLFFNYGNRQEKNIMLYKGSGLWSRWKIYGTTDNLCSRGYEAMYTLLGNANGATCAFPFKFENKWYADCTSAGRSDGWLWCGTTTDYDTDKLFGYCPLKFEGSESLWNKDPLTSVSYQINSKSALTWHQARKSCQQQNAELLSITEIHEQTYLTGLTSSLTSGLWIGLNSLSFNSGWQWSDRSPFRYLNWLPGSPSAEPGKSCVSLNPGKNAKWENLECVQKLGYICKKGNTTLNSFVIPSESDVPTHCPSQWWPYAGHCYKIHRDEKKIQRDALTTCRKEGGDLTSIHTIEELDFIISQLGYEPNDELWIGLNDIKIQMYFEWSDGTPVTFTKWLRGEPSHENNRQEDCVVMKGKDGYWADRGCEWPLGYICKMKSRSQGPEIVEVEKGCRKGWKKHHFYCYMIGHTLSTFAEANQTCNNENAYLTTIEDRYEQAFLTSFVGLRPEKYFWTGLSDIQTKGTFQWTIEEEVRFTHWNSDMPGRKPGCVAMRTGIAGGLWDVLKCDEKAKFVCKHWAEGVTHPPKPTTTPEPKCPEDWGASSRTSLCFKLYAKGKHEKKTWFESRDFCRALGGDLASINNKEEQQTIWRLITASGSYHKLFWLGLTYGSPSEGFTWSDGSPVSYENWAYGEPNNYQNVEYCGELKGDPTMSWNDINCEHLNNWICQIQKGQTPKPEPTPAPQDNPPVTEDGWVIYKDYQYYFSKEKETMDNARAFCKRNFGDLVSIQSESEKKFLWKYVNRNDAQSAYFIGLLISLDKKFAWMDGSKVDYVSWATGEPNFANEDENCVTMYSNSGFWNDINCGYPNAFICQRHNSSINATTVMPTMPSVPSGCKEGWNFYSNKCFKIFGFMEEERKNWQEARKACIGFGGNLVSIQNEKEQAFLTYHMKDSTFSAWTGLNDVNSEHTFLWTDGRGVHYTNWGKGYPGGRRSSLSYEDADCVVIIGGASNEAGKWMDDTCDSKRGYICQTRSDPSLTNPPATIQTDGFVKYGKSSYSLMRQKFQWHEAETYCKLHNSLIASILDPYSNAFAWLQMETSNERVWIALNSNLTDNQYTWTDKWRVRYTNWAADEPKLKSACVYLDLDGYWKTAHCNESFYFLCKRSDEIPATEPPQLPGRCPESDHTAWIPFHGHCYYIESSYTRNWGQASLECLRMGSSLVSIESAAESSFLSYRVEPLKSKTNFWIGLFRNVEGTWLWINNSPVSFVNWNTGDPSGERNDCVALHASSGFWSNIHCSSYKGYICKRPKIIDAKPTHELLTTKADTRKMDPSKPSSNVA

B1: BEAT 1a1 CD40 arm (antibody, V domains shown)
VH: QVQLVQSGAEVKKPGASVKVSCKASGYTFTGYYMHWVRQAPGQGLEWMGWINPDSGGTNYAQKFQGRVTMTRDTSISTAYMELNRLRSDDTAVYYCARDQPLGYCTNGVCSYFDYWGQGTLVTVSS
VL: DIQMTQSPSSVSASVGDRVTITCRASQGIYSWLAWYQQKPGKAPNLLIYTASTLQSGVPSRFSGSGSGTDFTLTISSLQPEDFATYYCQQANIFPLTFGGGTKVEIK
B2: BEAT 1b2 CD40 arm (antibody, V domains shown)
VH: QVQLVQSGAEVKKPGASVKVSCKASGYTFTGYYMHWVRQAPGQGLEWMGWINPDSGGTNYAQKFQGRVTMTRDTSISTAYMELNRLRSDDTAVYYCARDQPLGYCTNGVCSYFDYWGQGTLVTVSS
VL: B1 VL
B3: anti-CD40 IgG2 (antibody, V domains shown)
VH: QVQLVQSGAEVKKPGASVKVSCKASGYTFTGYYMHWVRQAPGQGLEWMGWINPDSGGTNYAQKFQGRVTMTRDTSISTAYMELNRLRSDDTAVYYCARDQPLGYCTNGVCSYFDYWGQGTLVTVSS
VL: B1 VL
B4: BEAT 1a4 CD40 arm (antibody, V domains shown)
VH: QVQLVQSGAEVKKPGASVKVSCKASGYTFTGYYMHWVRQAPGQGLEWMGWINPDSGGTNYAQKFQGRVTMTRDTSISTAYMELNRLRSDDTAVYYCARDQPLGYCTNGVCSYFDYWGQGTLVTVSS
VL: B1 VL
B5: BEAT 1b4 CD40 arm (antibody, V domains shown)
VH: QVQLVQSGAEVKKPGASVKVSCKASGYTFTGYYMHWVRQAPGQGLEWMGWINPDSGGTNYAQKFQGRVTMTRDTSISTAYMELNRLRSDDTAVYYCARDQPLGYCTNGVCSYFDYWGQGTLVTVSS
VL: B1 VL
B6: BEAT 1a5 CD40 arm (antibody, V domains shown)
VH: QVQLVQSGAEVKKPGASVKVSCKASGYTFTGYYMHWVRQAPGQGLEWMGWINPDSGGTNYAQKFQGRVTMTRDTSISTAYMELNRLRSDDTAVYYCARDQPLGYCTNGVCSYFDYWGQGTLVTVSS
VL: B1 VL
B7: BEAT 1a2 CD40 arm (antibody, V domains shown)
VH: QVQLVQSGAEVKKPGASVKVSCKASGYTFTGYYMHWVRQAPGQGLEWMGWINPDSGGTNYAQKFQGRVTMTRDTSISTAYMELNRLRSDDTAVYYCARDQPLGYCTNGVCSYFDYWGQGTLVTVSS
VL: B1 VL
B8: BEAT 1a3 CD40 arm (antibody, V domains shown)
VH: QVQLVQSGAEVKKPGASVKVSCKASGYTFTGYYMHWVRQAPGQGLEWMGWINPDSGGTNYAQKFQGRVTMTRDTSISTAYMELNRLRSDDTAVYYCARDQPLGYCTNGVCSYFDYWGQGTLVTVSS
VL: B1 VL
B9: BEAT 1a6 CD40 arm (antibody, V domains shown)
VH: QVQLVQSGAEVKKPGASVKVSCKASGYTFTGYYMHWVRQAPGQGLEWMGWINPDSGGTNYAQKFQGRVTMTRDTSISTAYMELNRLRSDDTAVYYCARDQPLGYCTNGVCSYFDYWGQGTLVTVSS
VL: B1 VL
B10: BEAT 1b1 CD40 arm (antibody, V domains shown)
VH: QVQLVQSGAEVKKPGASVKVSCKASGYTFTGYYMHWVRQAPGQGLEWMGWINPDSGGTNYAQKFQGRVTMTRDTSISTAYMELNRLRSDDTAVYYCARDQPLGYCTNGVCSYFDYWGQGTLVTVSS
VL: B1 VL
B11: BEAT 2b1 CD206 arm (antibody, V domains shown)
VH: EVQLVQSGAEVKKPGESLRISCKGSGDSFTTYWIGWVRQMPGKGLEWMGIIYPGDSDTIYSPSFQGQVTISADKSISTAYLQWSSLKASDTAMYYCTRGDRGVDYWGQGTLVTVSS
VL: DIQMTQSPSSLSASVGDRVTITCRASQGISRWLAWYQQKPEKAPKSLIYAASSLQSGVPSRFSGSGSGTDFTLTISGLQPEDFATYYCQQYNSYPRTFGQGTKVEIK
B12: BEAT 2a2 CD206 arm (antibody, V domains shown)
VH: B11 VH
VL: B11 VL
B13: BEAT 2b3 CD206 arm (antibody, V domains shown)
VH: B11 VH
VL: B11 VL
B14: anti-CD206 IgG1 (antibody, V domains shown)
VH: B11 VH
VL: B11 VL
B15: BEAT 2a6 CD206 arm (antibody, V domains shown)
VH: B11 VH
VL: B11 VL
B16: BEAT 2a4 CD206 arm (antibody, V domains shown)
VH: B11 VH
VL: B11 VL
B17: BEAT 2b2 CD206 arm (antibody, V domains shown)
VH: B11 VH
VL: B11 VL
B18: BEAT 2a8 CD206 arm (antibody, V domains shown)
VH: B11 VH
VL: B11 VL
B19: BEAT 2a3 CD206 arm (antibody, V domains shown)
VH: B11 VH
VL: B11 VL
B20: BEAT 2a5 CD206 arm (antibody, V domains shown)
VH: B11 VH
VL: B11 VL
B21: BEAT 2a7 CD206 arm (antibody, V domains shown)
VH: B11 VH
VL: B11 VL
B22: BEAT 2b4 CD206 arm (antibody, V domains shown)
VH: B11 VH
VL: B11 VL
B23: BEAT 2a7 FLAG arm (antibody)
chain: QVQLVQSGAEVKKPGASVKVSCKASGYSFTTYTIHWVRQAPGQGLEWIGYINPSSGYAAYNQKFQGRVTLTADKSTSTAYMELSSLRSEDTAVYYCAREKFYGYDYWGQGTTVTVSSGGGGSGGGGSGGGGSGGGGASDVVMTQSPDSLAVSLGERATINCKSSQSIVHRNGNTYLEWYQQKPGQPPKLLIYKVSNRFSGVPDRFSGSGSGTDFTLTISSLQAEDVAVYYCFQGSHVPYTFGGGTKLEIK
B24: BEAT 1a1 FLAG arm (antibody)
chain: DVVMTQSPDSLAVSLGERATINCKSSQSIVHRNGNTYLEWYQQKPGQPPKLLIYKVSNRFSGVPDRFSGSGSGTDFTLTISSLQAEDVAVYYCFQGSHVPYTFGGGTKLEIKGGGGSGGGGSGGGGSQVQLVQSGAEVKKPGASVKVSCKASGYSFTTYTIHWVRQAPGQGLEWIGYINPSSGYAAYNQKFQGRVTLTADKSTSTAYMELSSLRSEDTAVYYCAREKFYGYDYWGQGTTVTVSS
B25: BEAT 1a2 FLAG arm (antibody)
chain: B24 chain
B26: BEAT 1a6 FLAG arm (antibody)
chain: B23 chain
B27: BEAT 1a3 FLAG arm (antibody)
chain: B24 chain
B28: BEAT 1a7 FLAG arm (antibody)
chain: B23 chain
B29: BEAT 1a4 FLAG arm (antibody)
chain: B24 chain
B30: BEAT 1a5 FLAG arm (antibody)
chain: B23 chain
B31: BEAT 1a8 FLAG arm (antibody)
chain: B23 chain

These binders were tested against CD40 (human, UniProt P25942) (assay: SPR).
Chain of CD40 (P25942 21-193): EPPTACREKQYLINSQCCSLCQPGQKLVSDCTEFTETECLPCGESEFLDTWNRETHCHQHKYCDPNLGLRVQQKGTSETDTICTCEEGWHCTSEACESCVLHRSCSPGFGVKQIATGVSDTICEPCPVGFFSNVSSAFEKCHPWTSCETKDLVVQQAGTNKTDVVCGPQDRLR
In the case of B1, the Kd is reported as 0.574 nM and 0.572 nM and 0.585 nM.
In the case of B2, the Kd is reported as 0.444 nM and 0.295 nM.
For B3, the Kd was 0.535 nM and 0.7 nM.
In the case of B4, the Kd is reported as 0.444 nM and 0.391 nM and 0.467 nM.
B5 was tested, and the Kd was 0.487 nM and 0.496 nM.
With B6 the Kd was 0.988 nM and 0.986 nM.
B7 was tested, and the Kd was 0.471 nM and 0.534 nM.
With B8 the Kd was 0.957 nM and 0.975 nM.
In the case of B9, the Kd is reported as 0.371 nM and 0.394 nM.
For B10, the Kd was 0.379 nM and 0.62 nM.

Target: T1, CD206
Assay: SPR
With B11 the Kd was 27.8 nM and 47 nM.
With B12 the Kd was 11.8 nM and 9.48 nM.
B13 was tested, and the Kd was 20.1 nM and 21.3 nM.
In the case of B14, the Kd is reported as 11.2 nM and 10.3 nM and 10.5 nM and 11.1 nM.
B15 was tested, and the Kd was 10.3 nM and 10.4 nM.
With B16 the Kd was 10.3 nM and 11.9 nM.
B17 was tested, and the Kd was 12.7 nM and 13.4 nM.
With B18 the Kd was 15.8 nM and 15.6 nM.
In the case of B19, the Kd is reported as 22.2 nM and 23.6 nM.
In the case of B20, the Kd is reported as 30.1 nM and 32.7 nM.
B21 was tested, and the Kd was 15.9 nM and 14.3 nM.
In the case of B22, the Kd is reported as 14 nM and 12.4 nM.

These binders were tested against T2, FLAG-BAP (FLAG tag fused to bacterial alkaline phosphatase) (assay: SPR).
In the case of B23, the Kd is reported as 6.59 nM and 9.46 nM.

Target: T2, FLAG-BAP
Assay: SPR
Remark: another data set of the same source
For B24, the Kd was 0.671 nM and 0.798 nM.
With B25 the Kd was 1.26 nM and 1.99 nM.
In the case of B26, the Kd is reported as 15.5 nM and 27.4 nM.
With B27 the Kd was 1.22 nM and 1.24 nM and 1.65 nM.
For B28, the Kd was 10.9 nM and 13.5 nM and 7.81 nM.
With B29 the Kd was 6.9 nM and 5.04 nM.
For B30, the Kd was 21.9 nM and 15.4 nM.
In the case of B31, the Kd is reported as 10.1 nM and 8.85 nM.

Reference: US20260285997 (published 2026)
